Tested on: Lenti-X 293T cells
Test: YFP fluorescence quenching anion reporter plate reader assay of engineered receptors stimulated with acetylcholine or a non-native ligand
Type: cell-based
Details: for percent quench of YFP fluorescence, 10 uM ach: acetylcholine 10 uM; for percent quench of YFP fluorescence, 100 uM ach: acetylcholine 100 uM; for percent quench of YFP fluorescence, 1 mM ach: acetylcholine 1 mM; for percent quench of YFP fluorescence, 3 mM ach: acetylcholine 3 mM
From the text: To screen these mutant LGICs for those having novel response profiles to ligands, an anion reporter assay was developed to assess the function of the LGICs in a high throughput format. In this assay, cells expressing a YFP reporter whose fluorescence is quenched in the presence of anion are transfected with DNA encoding the channel of interest. Upon exposure to ligand, channels that are activated will flux anion, resulting in a dose-dependent quench of the YFP that can be detected on a plate reader. The greater the quench signal (i.e., the more positive the value), the higher the ligand activity on the receptor is.
Lenti-X 293T cells (LX293T, Clontech) were maintained in DMEM containing 10% FBS and 1% penicillin/streptomycin (Invitrogen). […] Two days before assay, cells were split at a density of 20,000 cells/well in a 96-well tissue culture plate coated with poly-d lysine (Thermo Scientific). The next day, the cells were transiently transfected with 0.1 μg of DNA per well using standard Fugene protocol (Promega). On the day of assay, cells were washed 2 times in 1× extracellular solution (1×ECS: 140 mM NaCl, 5 mM KCl, 1 mM MgCl2, 2 mM CaCl2), 10 mM HEPES, 10 mM glucose, pH 7.2, mOsms 300). After the last wash, 100 μL of 1×ECS was added to the wells and the plate was incubated at 37° C. for 30 min. While incubating the plate, the drugs were diluted to a 2× concentration in 1×ECS-NaI (same components as 1×ECS except the 140 mM NaCl was replaced by 140 mM NaI). The plates were then read on a Flexstation3 (Molecular Devices). Each well, 8 wells at a time, of the plate is read for 2 min using a Flexstation3 (Molecular Devices) as follows: 1) a baseline YFP fluorescence is read for 17 sec, 2) 100 μL of ligand is added, and 3) the changes in YFP fluorescence are then measured every 1.3 sec for 1 minute and 43 seconds. The percent quench is calculated from the average fluorescence of the last 10 seconds of the read divided by the baseline average of the first 15 seconds prior to the ligand addition.
FIGS. 1A-1J provide heat maps of the percent quench of YFP fluorescence following stimulation by various doses of either acetylcholine or the non-native ligand as indicated in the Figures. CODA71 (SEQ ID NO: 33) was used as a control, and CODA75 (SEQ ID NO: 29, a non-responding chimeric engineered receptor) was used as the negative control. Quenching of the fluorescence signal, as indicated by blue shaded cells, indicate the level of engineered receptor activation by the non-native ligand at that concentration.

B1: CODA236: engineered chimeric LGIC receptor, R101F in SEQ ID NO: 33 (protein)
chain: MRCSPGGVWLALAASLLHVSLQGEFQRKLYKELVKNYNPLERPVANDSQPLTVYFSLSLLQIMDVDEKNQVLTTNIWLQMSWTDHYLQWNVSEYPGVKTVFFPDGQIWKPDILLYNSADERFDATFHTNVLVNSSGHCQYLPPGIFKSSCPMDLKNFPMDVQTCKLKFGSWSYGGWSLDLQMQEADISGYIPNGEWDLVGIPGKRSERFYECCKEPYPDVTFTVTMRRRMGYYLIQMYIPSLLIVILSWISFWINMDAAPARVGLGITTVLTMTTQSSGSRASLPKVSYVKAIDIWMAVCLLFVFSALLEYAAVNFVSRQHKELLRFRRKRRHHKSPMLNLFQEDEAGEGRFNFSAYGMGPACLQAKDGISVKGANNSNTTNPPPAPSKSPEEMRKLFIQRAKKIDKISRIGFPMAFLIFNMFYWIIYKIVRREDVHNQ
modifications: synthetic sequence of chimeric LGIC
YFP fluorescence quenching using CNL001 (1 nM CNL001, first column): 9.048% | YFP fluorescence quenching using CNL001 (1 nM CNL001, second column): 26.601% | YFP fluorescence quenching using TC-5619/Bradanicline (3 nM brd): 49.33% | YFP fluorescence quenching using Varenicline (3 nM var, first column): 19.949 | YFP fluorescence quenching using Varenicline (3 nM var, second column): 22.334 | YFP fluorescence quenching using CNL001 (10 nM CNL001, first column): 71.533% | YFP fluorescence quenching using CNL001 (10 nM CNL001, second column): 72.948% | YFP fluorescence quenching using TC-5619/Bradanicline (30 nM brd): 77.38% | YFP fluorescence quenching using Facinicline (30 nM fac): −28.54 | YFP fluorescence quenching using Varenicline (30 nM var, first column): 15.764 | YFP fluorescence quenching using Varenicline (30 nM var, second column): 16.213 | YFP fluorescence quenching using CNL001 (50 nM CNL001, first column): 75.895% | YFP fluorescence quenching using CNL001 (50 nM CNL001, second column): 74.238% | YFP fluorescence quenching using ABT-126 (50 nM abt): −18.69% | YFP fluorescence quenching using CNL001 (100 nM CNL001, first column): 76% | YFP fluorescence quenching using CNL001 (100 nM CNL001, second column): 75.861% | YFP fluorescence quenching using CNL002 (100 nM CNL002): −9.56% | YFP fluorescence quenching using ABT-126 (100 nM abt): −23.01% | YFP fluorescence quenching using AZD-0328 (100 nM azd0328): −9.78% | YFP fluorescence quenching using ABT-126 (300 nM abt): −20.92% | YFP fluorescence quenching using AZD-0328 (300 nM azd0328): 49.64% | YFP fluorescence quenching using TC-5619/Bradanicline (300 nM brd): 77.51% | YFP fluorescence quenching using Facinicline (300 nM fac): 72.98 | YFP fluorescence quenching using Varenicline (300 nM var, first column): 23.135 | YFP fluorescence quenching using Varenicline (300 nM var, second column): 22.987 | YFP fluorescence quenching using Varenicline (500 nM var, first column): 35.048 | YFP fluorescence quenching using Varenicline (500 nM var, second column): 34.188 | YFP fluorescence quenching using CNL001 (1 uM CNL001, first column): 76.367% | YFP fluorescence quenching using CNL001 (1 uM CNL001, second column): 76.162% | YFP fluorescence quenching using CNL002 (1 uM CNL002): 56.9% | YFP fluorescence quenching using ABT-126 (1 uM abt): 4.99% | YFP fluorescence quenching using TC-6987 (1 uM tc6987): 45.34 | YFP fluorescence quenching using Varenicline (1 uM var, first column): 71.031 | YFP fluorescence quenching using Varenicline (1 uM var, second column): 71.005 | YFP fluorescence quenching using TC-6987 (10 uM tc6987): 70.04 | YFP fluorescence quenching using CNL002 (30 uM CNL002): 70.28% | YFP fluorescence quenching using AZD-0328 (30 uM azd0328): 81.14% | YFP fluorescence quenching using Facinicline (30 uM fac): 87.6 | YFP fluorescence quenching using TC-6987 (500 uM tc6987): 75.86 | percent quench of YFP fluorescence, 10 uM ach: −18.24% | percent quench of YFP fluorescence, 100 uM ach: 60% | percent quench of YFP fluorescence, 1 mM ach: 66.07% | percent quench of YFP fluorescence, 3 mM ach: 71.38%

B2: CODA237: engineered chimeric LGIC receptor, R101M in SEQ ID NO: 33 (protein)
chain: MRCSPGGVWLALAASLLHVSLQGEFQRKLYKELVKNYNPLERPVANDSQPLTVYFSLSLLQIMDVDEKNQVLTTNIWLQMSWTDHYLQWNVSEYPGVKTVMFPDGQIWKPDILLYNSADERFDATFHTNVLVNSSGHCQYLPPGIFKSSCPMDLKNFPMDVQTCKLKFGSWSYGGWSLDLQMQEADISGYIPNGEWDLVGIPGKRSERFYECCKEPYPDVTFTVTMRRRMGYYLIQMYIPSLLIVILSWISFWINMDAAPARVGLGITTVLTMTTQSSGSRASLPKVSYVKAIDIWMAVCLLFVFSALLEYAAVNFVSRQHKELLRFRRKRRHHKSPMLNLFQEDEAGEGRFNFSAYGMGPACLQAKDGISVKGANNSNTTNPPPAPSKSPEEMRKLFIQRAKKIDKISRIGFPMAFLIFNMFYWIIYKIVRREDVHNQ
modifications: synthetic sequence of chimeric LGIC
YFP fluorescence quenching using CNL001 (1 nM CNL001, first column): −2.114% | YFP fluorescence quenching using CNL001 (1 nM CNL001, second column): −5.079% | YFP fluorescence quenching using TC-5619/Bradanicline (3 nM brd): −14.87% | YFP fluorescence quenching using Varenicline (3 nM var, first column): 18.429 | YFP fluorescence quenching using Varenicline (3 nM var, second column): 16.83 | YFP fluorescence quenching using CNL001 (10 nM CNL001, first column): 15.096% | YFP fluorescence quenching using CNL001 (10 nM CNL001, second column): 50.554% | YFP fluorescence quenching using TC-5619/Bradanicline (30 nM brd): 69.93% | YFP fluorescence quenching using Facinicline (30 nM fac): −24.14 | YFP fluorescence quenching using Varenicline (30 nM var, first column): 23.07 | YFP fluorescence quenching using Varenicline (30 nM var, second column): 15.868 | YFP fluorescence quenching using CNL001 (50 nM CNL001, first column): 66.585% | YFP fluorescence quenching using CNL001 (50 nM CNL001, second column): 74.462% | YFP fluorescence quenching using ABT-126 (50 nM abt): −24.34% | YFP fluorescence quenching using CNL001 (100 nM CNL001, first column): 78% | YFP fluorescence quenching using CNL001 (100 nM CNL001, second column): 77.411% | YFP fluorescence quenching using CNL002 (100 nM CNL002): −8.68% | YFP fluorescence quenching using ABT-126 (100 nM abt): −20.22% | YFP fluorescence quenching using AZD-0328 (100 nM azd0328): −17.84% | YFP fluorescence quenching using ABT-126 (300 nM abt): −20.57% | YFP fluorescence quenching using AZD-0328 (300 nM azd0328): −11.98% | YFP fluorescence quenching using TC-5619/Bradanicline (300 nM brd): 76.57% | YFP fluorescence quenching using Facinicline (300 nM fac): −14.38 | YFP fluorescence quenching using Varenicline (300 nM var, first column): 18.819 | YFP fluorescence quenching using Varenicline (300 nM var, second column): 19.155 | YFP fluorescence quenching using Varenicline (500 nM var, first column): 19.117 | YFP fluorescence quenching using Varenicline (500 nM var, second column): 22.593 | YFP fluorescence quenching using CNL001 (1 uM CNL001, first column): 79.06% | YFP fluorescence quenching using CNL001 (1 uM CNL001, second column): 79.162% | YFP fluorescence quenching using CNL002 (1 uM CNL002): −2.24% | YFP fluorescence quenching using ABT-126 (1 uM abt): −19.55% | YFP fluorescence quenching using TC-6987 (1 uM tc6987): −21.62 | YFP fluorescence quenching using Varenicline (1 uM var, first column): 24.525 | YFP fluorescence quenching using Varenicline (1 uM var, second column): 23.383 | YFP fluorescence quenching using TC-6987 (10 uM tc6987): 21.52 | YFP fluorescence quenching using CNL002 (30 uM CNL002): 66.99% | YFP fluorescence quenching using AZD-0328 (30 uM azd0328): 81.2% | YFP fluorescence quenching using Facinicline (30 uM fac): 88.78 | YFP fluorescence quenching using TC-6987 (500 uM tc6987): 60.33 | percent quench of YFP fluorescence, 10 uM ach: −16.79% | percent quench of YFP fluorescence, 100 uM ach: −18.63% | percent quench of YFP fluorescence, 1 mM ach: 46.28% | percent quench of YFP fluorescence, 3 mM ach: 69.31%

Source: patent publication US20240317834A1, “COMPOSITIONS AND METHODS FOR NEUROLOGICAL DISEASES” (CODA BIOTHERAPEUTICS, INC., priority 2020, published 2024)
